Residue numbers refer to the chain shown, from its start.
T1: rat acid-sensing ion channel 1b (rat)
T1 sequence (P55926 whole entry, looked up): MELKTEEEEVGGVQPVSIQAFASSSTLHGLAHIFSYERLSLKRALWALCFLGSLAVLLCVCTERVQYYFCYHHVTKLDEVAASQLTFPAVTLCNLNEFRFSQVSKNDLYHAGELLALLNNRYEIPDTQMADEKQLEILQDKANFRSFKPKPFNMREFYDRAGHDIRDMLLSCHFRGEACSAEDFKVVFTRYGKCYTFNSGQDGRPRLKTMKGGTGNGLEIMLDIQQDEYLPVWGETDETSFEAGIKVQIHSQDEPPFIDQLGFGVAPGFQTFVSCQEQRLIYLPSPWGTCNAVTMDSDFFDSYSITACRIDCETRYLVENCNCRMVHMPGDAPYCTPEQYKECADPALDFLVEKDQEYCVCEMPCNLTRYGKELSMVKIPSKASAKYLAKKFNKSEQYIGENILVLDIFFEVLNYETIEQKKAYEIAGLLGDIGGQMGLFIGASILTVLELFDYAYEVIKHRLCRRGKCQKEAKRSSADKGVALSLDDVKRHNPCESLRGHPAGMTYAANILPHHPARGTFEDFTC

T2: rASIC1a S83T/Q84E/R175C/E177G (rat) (UniProt P55926)
T2 sequence: T1 sequence (P55926 whole entry, looked up) with S83T, Q84E, R175C, E177G

T3: rat acid-sensing ion channel 1a (rat) (UniProt P55926)
T3 sequence: T1 sequence (P55926 whole entry, looked up)

T4: human acid-sensing ion channel 1a (human) (UniProt P78348)
T4 sequence: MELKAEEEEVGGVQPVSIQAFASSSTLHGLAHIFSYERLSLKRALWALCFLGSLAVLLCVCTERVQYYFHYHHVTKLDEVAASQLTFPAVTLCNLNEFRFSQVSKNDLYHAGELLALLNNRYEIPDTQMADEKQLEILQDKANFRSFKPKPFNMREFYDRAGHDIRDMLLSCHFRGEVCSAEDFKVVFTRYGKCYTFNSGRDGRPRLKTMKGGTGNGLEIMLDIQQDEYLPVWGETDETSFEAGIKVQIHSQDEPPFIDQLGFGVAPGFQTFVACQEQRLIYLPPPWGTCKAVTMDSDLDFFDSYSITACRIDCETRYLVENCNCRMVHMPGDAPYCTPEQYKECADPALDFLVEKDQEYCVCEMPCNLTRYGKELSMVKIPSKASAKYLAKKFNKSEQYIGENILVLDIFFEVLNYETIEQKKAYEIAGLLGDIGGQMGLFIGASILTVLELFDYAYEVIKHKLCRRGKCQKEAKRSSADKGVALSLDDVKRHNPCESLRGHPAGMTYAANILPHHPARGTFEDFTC

T5: rASIC1a E362R (rat) (UniProt P55926)
T5 sequence: T1 sequence (P55926 whole entry, looked up) with E362R

B1: mambalgin-3 (peptide)
chain: SLKCYQHGKVVTCHRDMKFCYHNIGMPFRNLKLILQGCSSSCSETENNKCCSTDRCNK

What was measured:
[1] = biological target: T1, rat acid-sensing ion channel 1b (rat)
[2] = biological target: T2, rASIC1a S83T/Q84E/R175C/E177G (rat)
[3] = biological target: T3, rat acid-sensing ion channel 1a (rat)
[4] = biological target: T1, rat acid-sensing ion channel 1b (rat); remark: listed apart in the source
[5] = biological target: T4, human acid-sensing ion channel 1a (human)
rASIC1a E362R (rat) = biological target: T5, rASIC1a E362R (rat)
[6] = biological target: T4, human acid-sensing ion channel 1a (human); remark: listed apart in the source
[7] = biological target: T3, rat acid-sensing ion channel 1a (rat); remark: listed apart in the source
[8] = biological target: T1, rat acid-sensing ion channel 1b (rat); remark: listed apart in the source
[9] = biological target: rASIC1b T128S/E129Q/C208R/G210E (rat)

| Molecule | I/I (control) of pH 6-evoked currents with 300 nM peptide (I/I (control)) [1] | I/I (control) of pH 6-evoked currents with 300 nM peptide (I/I (control)) [2] | fold loss of potency of current inhibition against wild-type Ma-3 (conditioning pH 7.45, stimulus pH 6) [3] [fold] | fold loss of potency of current inhibition against wild-type Ma-3 (conditioning pH 7.45, stimulus pH 6) [4] [fold] | fold loss of potency of current inhibition against wild-type Ma-3 (conditioning pH 7.45, stimulus pH 6) [5] [fold] | concentration-response of inhibition of pH 6-evoked currents (conditioning pH 7.45); fold change against wild-type rASIC1a (rASIC1a E362R (rat)) [fold] | IC50 of inhibition of pH 6-evoked currents (two-electrode voltage clamp, Xenopus oocytes, conditioning pH 7.45) [6] [nM] | IC50 of inhibition of pH 6-evoked currents (two-electrode voltage clamp, Xenopus oocytes, conditioning pH 7.45) [7] [nM] | IC50 of inhibition of pH 6-evoked currents (two-electrode voltage clamp, Xenopus oocytes, conditioning pH 7.45) [8] [nM] | maximal inhibition of pH 6-evoked currents at saturating Ma-3 [8] [%] | IC50 of inhibition of pH 6-evoked currents (conditioning pH 7.45) [9] [nM] |
| --- | --- | --- | --- | --- | --- | --- | --- | --- | --- | --- | --- |
| Ma-3 K8A (peptide) | 0.91 | 0.65 | 4 | > 30 | 4 |  |  |  |  |  |  |
| B1 | 0.4 | 0.48 |  |  |  | 5 | 25 | 3.9 | 38.3 | 60 | 18.5 |

— paper PMC11335189, “Revealing molecular determinants governing mambalgin-3 pharmacology at acid-sensing ion channel 1 variants” (Cellular and Molecular Life Sciences: CMLS, 2024)
